In the nanobody polyreactivity screen of Harvey et al. (2022):

Test: yeast display, Sf9 membrane polyspecificity reagent, FACS + sequencing; frameworks hold sequencing errors
In short: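 Galactose-induced (36–48 hours) yeast carrying a synthetic nanobody display library were exposed to 10% biotinylated, detergent-solubilized Sf9 membrane reagent at 4 °C for 1 hour. FACS followed streptavidin microbead enrichment, using low and high (top ~1%) gates for expression (anti-HA) and reagent binding (streptavidin). Colony PCR, MiSeq 2 × 250 sequencing and CDR-length filtering followed. Labels for polyreactivity reflect the gate of origin.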

Sequence: QVQLVETGGGLVQAGGSLRLSCAASGRTIRKYAMGWYRQAPGKERELVAAISWSGGSTYYANSVKGRFTISRDNAKNTVYLQMKSLKPVDTEVYYCAAVPVHTGSLYWGFTTGYDYWGQGTQVTVSS
- polyreactivity (PSR sort gate): low polyreactivity

Sequence: QVQLVETGGGLVQAGGSLRLSCAASGRTYRFNAMGWYRQAPGKERELVASINSGVRTYYADSVKGRFTISRDNAKNTVYLQMNSLKPEDSAVYYCAARYRVRYYERDYWGQGTQVTVSS
- polyreactivity (PSR sort gate): high polyreactivity

Sequence: QVQLVETGGGLVQAGGSLRLSCAASGRTYVYNAMGWYRQAPGKERELVAAIDGGGDRTYYADSVKGRFTISRDNAKNTVYLQMNSLKPEDTAVYYCARDPGDTYYYSYQEGDYWGQGTQVTVSS
- polyreactivity (PSR sort gate): low polyreactivity

Sequence: QVQLVETGGGLVQAGGSLRLSCAASGSIFGFYAMGWYRQAPGKERELVAAIDSGDSTNYADSVKGRFTISRDNAKNTVYLQMNSLKPEDTAVYYCYAEAWWYFWFDYWGQGTQVTVSS
- polyreactivity (PSR sort gate): low polyreactivity

Sequence: QVQLVETGGGLVQAGGSLRLSCAASGSIFIWYAMGWYRQAPGKERELVAAIRSGGSTYYADSVKGRFTISRDNAKNTVYFQMNRLKPEDTAVYYCAKVLSWRGNRYNYWGQGTQVTVSS
- polyreactivity (PSR sort gate): low polyreactivity

Sequence: QVQLVETGGGLVQAGGSLRLSCAASGSIFYPNAMGWYRQAPGKERELVAAISSSGGTNYADSVKGRFTISRDNAKNTVYLQMNSLKPEDTAVYYCNARDKVRYRYSRMDYWGQGTQVTVSS
- polyreactivity (PSR sort gate): low polyreactivity

Sequence: QVQLVETGGGLVQAGGSLRLSCAASGSTFHGYAMGWYRQEPGKERELVAAITSGDSTNYADSVKGRFTISRDNAKNTVYLQMNSLKPEDTAVYYCNAEGSSVLTGYWGYPPYWDTYDYWGQGTQVTVSS
- polyreactivity (PSR sort gate): low polyreactivity

Sequence: QVQLVETGGGLVQAGGSLRLSCAASGSTFQLYAMGWYRQAPGKERDFVAAISNGGRTNYADSVKGRFTISRDNAKNTVYLQMTSLKPEDTAVYYCNADQVWWSFDRVLVGYEYWGKGTQVTVSS
- polyreactivity (PSR sort gate): low polyreactivity

Sequence: QVQLVETGGGLVQAGGSLRLSCAASGSTFYAYVMGWYRQAPGKERELVAAITSAGSTYYADSVKGRFTISLDNAKNTVYLQMNSLKPEDTAVYYCAADAYTESAYYKYDYWGQGTQVTVSS
- polyreactivity (PSR sort gate): low polyreactivity

Sequence: QVQLVETGGGLVQAGGSLRLSCAASGSTFYHNAMGWYRQAPGKERELVAAISIGGGRTYYADSVKGRFTISRDNAKNTVYLQMNSLKPEDTAVYYCAAGSPAVYGRGFNYWGQGTQVTVSS
- polyreactivity (PSR sort gate): low polyreactivity

Sequence: QVQLVETGGGLVQAGGSLRLSCAASGSTFYRNTKGCYRQAPGKEREFVAGISDRGTSTYYADSVKGRFTISRDNAKNTVYLQMNSLKPEDTAVYYCNKRSWPAYVHKYDYWGQGTQVTVSS
- polyreactivity (PSR sort gate): low polyreactivity

Sequence: QVQLVETGGGLVQAGGSLRLSCAASGSTVRFNAMGWYRQAPGKERELVAVIRWRGGTTYYADSVKGRFTISRDNAKNTVYLQMNSLKPVDTAVYYCNADYWFSYTWHGSYTVGYWGQGTQVTVSS
- polyreactivity (PSR sort gate): high polyreactivity

Sequence: QVQLVETGGGLVQAGGSLRLSCAASGYILINAMGLYRQAPGKERELVASISWSSGSTYYADSVKGRFTISRDNAKNTVFLQMNSLKPEDTAVYYCAATAWDRWSYRYEYWGQGTQVTVSS
- polyreactivity (PSR sort gate): low polyreactivity

Sequence: QVQLVETGGGLVQAGGSLRLSCAAYGRIFAIYAMGWYRQAPGKDRELVAAISRSGGSTSYADSVKGRFTISRDNAKNTVYLQMNSLKPEDTAVYYCARRITYYQLSRQRYDYWGQGTQVTVSS
- polyreactivity (PSR sort gate): high polyreactivity

Sequence: QVQLVETGGGLVQAGGSLRLSCADSGRIFRYYVMGWYRQAPGKERELVAAISRSGGSTYYADSVKGRFTISRDNAKNTVYLQMNSLKPEETAVYYCAKRVSTYGFSGYDYWGQGTQVTVSS
- polyreactivity (PSR sort gate): high polyreactivity

Sequence: QVQLVETGGGLVQAGGSLRLSCAPSGIIISHYAKGWYRQAPGKETELVAAISSRGGSTYYADSVKGRFTISRDIAKNTVYLQMNSLKPEDTAVYYCATTDPYDSSYYIYYYWGQGTQVTVSS
- polyreactivity (PSR sort gate): high polyreactivity

Sequence: QVQLVETGGGLVQAGGSLRLSCAPSGINFTGYDMGWYRQAPGKERELVAAITSGGSTYYADSVKGRFTISRDNAKNTVYLQMNSLKPEDTAVYYCAARAKLTGYWGQGTQVTVSS
- polyreactivity (PSR sort gate): high polyreactivity

Sequence: QVQLVETGGGLVQAGGSLRLSCDASGRIFGGYAMGWYRKAPGKERELVAAISASGGRTYYADSVKGRFTISRDNAKNTVYLQMNSLKPEDNAVYYCAASFRRTSLRWLGEYWGQGTQVTVSS
- polyreactivity (PSR sort gate): high polyreactivity

Sequence: QVQLVETGGGLVQAGGSLRLSSAASGFTFGTYAMGWYRQAPGKERELVAAITGSGVRTYYADSVKGRFTISRDIAKYTVFLQMNSLKPEDTAVYYCAADYVVPLAFWTFRFDYWGQGTQVTVSS
- polyreactivity (PSR sort gate): low polyreactivity

Sequence: QVQLVETGGGLVQAGGSLSLSCAASGSTSSRYAMGWYRQAPGKEMELVARINWNGGSTYYADSVKGRFTISRDNAKNTVYLQMNSLKPEDTAVYYCAADSFGITYVSYVSIYDFDYWGQGTQLTVSS
- polyreactivity (PSR sort gate): low polyreactivity

Sequence: QVQLVETGGGLVQAGGTLRLSCAASGRIFRRYAMVWYRQAPGKEREFVAAITDGSTYYADSVKGRFTISRDNAKNTVYLQMNSLNPEDPAVYYCATQFGWSYSRRFYYWGQGTQVTVSS
- polyreactivity (PSR sort gate): high polyreactivity

Sequence: QVQLVETGGGLVQAGRSLRLSCAASGSNFRSYARGWYRQAPGKERELVAAITSSSGSTDYADSVKGRFTSSRDNAKNTVYLQMNSLKPEDTAVYYCNAPYWKSRFRAYYHWGQGTQVTVSS
- polyreactivity (PSR sort gate): high polyreactivity

Sequence: QVQLVETGGGLVQAGVSHRLSFASSGSTFVEYVMGWYRQAPGKERELVARITWGGGITYYADSVKVRFTFSRDNAKNTVYLLMNRVNPEDNAVYYCAAGTITYGYGYDYWGQGTQVSVSS
- polyreactivity (PSR sort gate): low polyreactivity

Sequence: QVQLVETGGGLVQAGVSLRISCAASGRTFSVYTMGWYRQAPGKERELVAAIRGRGGSTYYADSVKGRFTISRDNAKNTVYLQMNSLKPEDTAVYYCAARASIFGATFDYWGQGTQVTVSS
- polyreactivity (PSR sort gate): high polyreactivity

Sequence: QVQLVETGGGLVQAGVSLRLSCAASGRIFEVNVMGWYRQAPGKERELVAAITTGGGSTYYADSVKGRFTISRDNAKNTVYLQMNSLKPEDTAVYYCATDYSSYLYDYYTGVGGYDYWGQGTQVTVSS
- polyreactivity (PSR sort gate): low polyreactivity

Sequence: QVQLVETGGGLVQARGSLRLSCAASGRTLPDNAMGWSRQAPGNESELVAAITTSGGSTYYADSVMGRFTISRDNAQNTVYLQLNSLKPEDTAVYYCAADIWQYSLIANYHPYDYWGQGTQVTVSS
- polyreactivity (PSR sort gate): low polyreactivity

Sequence: QVQLVETGGVLVQAGGSLRLSCAASGITFYRYAMGWYRQAPGKERELVATITSGVSTFYADSVKGRFTISRDNAKNTVYLQMKSLKQEDTAVYFCAAESVWNWYYTTAGMDYWGLGTQVTVSS
- polyreactivity (PSR sort gate): high polyreactivity

Sequence: QVQLVETGRGLLQAGGTLLLTCAASGSIYTYAMGWYKQAHGTQRELVAAISRSGGRTYYADSVKGRFTNSRDNAKNTVYLQMNSLKPEDTAVYYCAALLLKDYDYLGQGTQVTVSS
- polyreactivity (PSR sort gate): low polyreactivity

Sequence: QVQLVEYGAALVKAGGSLRLSCAPSGSIFDFYVMGWYRQAPGKERELVAAISSGGSTYYADSVKGRFTISRDNAKNTVYLQMNSLKPEDSAVYYCAAYPEYVSGAWYDYWGLGTQVTVSS
- polyreactivity (PSR sort gate): low polyreactivity

Sequence: QVQLVGSGGGLVQAGGSLRLSCAASGRIFSSSAMGWYRQAPGKERELVASIDWSDGSTYYADSVKGRFTISRDNAKNTVYLQRNSLKPEDTAVYYCAADFVPYLIYGYWGQGTQVTVSS
- polyreactivity (PSR sort gate): low polyreactivity

Sequence: QVQLVKSGGGLVQAGGSLRLICAASGSIFGYNTMGWYRQAPGKERELVATITYRGGSTYYADSVKGRFTISRDNAKNTVYLQMNSLKPEDTAVYYCARRVTRYPYTTWVSAGDYWGQGTQVTVSS
- polyreactivity (PSR sort gate): high polyreactivity
